Results published in article PMC8391104 (2021).
Numbering of substitutions follows the chain as printed. Where no end group is shown, it is not given here. [ ]: non-standard residue; d: D form. pT = C[C@@H](OP(=O)(O)O)[C@H](N)C(=O)O; pS = N[C@@H](COP(=O)(O)O)C(=O)O

Columns and labels:
Test in all cases: ITC
[1] = biological target: T1, Mad1CTD K614A (Homo sapiens)
T1 chain: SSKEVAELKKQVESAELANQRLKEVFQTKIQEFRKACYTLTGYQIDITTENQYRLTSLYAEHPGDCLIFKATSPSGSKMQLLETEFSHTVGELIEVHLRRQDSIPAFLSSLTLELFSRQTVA

[2] = biological target: T2, Mad1^CTD Q627A (human, UniProt Q9Y6D9 597-718, Q627A)
T2 sequence: T1 chain with A18K, Q31A

[3] = biological target: T3, Mad1^CTD I643A (human, UniProt Q9Y6D9 597-718, I643A)
T3 sequence: T1 chain with A18K, I47A

[4] = biological target: T4, Mad1^CTD R650A (human, UniProt Q9Y6D9 597-718, R650A)
T4 sequence: T1 chain with A18K, R54A

B1: doubly phosphorylated Bub1^CD1 peptide (pSer459-pThr461) (peptide)
peptide: KVQP[pS]P[pT]VHTKEALGFIMNMFQAPTS
[1]
  Kd: 2400 nM
[2]
  Kd: 2400 nM
[3]
  Kd: 1400 nM
[4]
  Kd: 1100 nM
